Results as given in patent US20200239573A1 (CRESCENDO BIOLOGICS, published 2020).

Legend:
[1] = target: human PD-1 expressed on cells (CHO human PD-1 cells) (human) (UniProt Q15116); test: FMAT inhibition assay on CHO human PD-1 cells; blocked ligand: human Fc tagged human PD-L1
[2] = target: T1, human PD-1 expressed on cells (CHO human PD-1 cells) (human, UniProt Q15116 21-288); test: cell-based or functional assay
[3] = target: T1, human PD-1 expressed on cells (CHO …); test: cell-based or functional assay; remark: listed apart in the source
[4] = target: T2, recombinant human PD-1 Fc chimera (human, UniProt Q15116 25-167); test: SPR Biacore T200, PD-1-Fc captured on protein G, single cycle kinetics
T2 construct: Bought protein; also called human PD-1-huFc; huPD-1-Fc; not shown: human Fc
T2 sequence (Q15116 25-167 limits assumed, change not shown): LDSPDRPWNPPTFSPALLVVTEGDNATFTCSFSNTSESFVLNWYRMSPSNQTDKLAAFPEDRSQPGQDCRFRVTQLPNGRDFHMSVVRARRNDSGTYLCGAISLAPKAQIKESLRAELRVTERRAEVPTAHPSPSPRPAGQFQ
Protocol: Single cycle kinetics assays were used to study the interaction between human Fc tagged human PD-1 with Humabody® on a Biacore T200 instrument (GE Healthcare). Protein G was amine coupled to two flow cells of a CM-5 chip. Human Fc tagged recombinant human PD-1 was captured onto one of the flow cells. The other was used as the reference flow cell. A five point, three-fold dilution series of each Humabody® was made with a top concentration within the range of 50 to 150 nM. The binding kinetics were followed by flowing the Humabody® over the chip surface in HBS EP+ buffer at a flow rate of 30 μl/min. The contact time for each of the association steps was 180 seconds and the dissociation step was 3600 seconds. The data was fitted to a 1:1 binding model after double reference subtraction using the Biacore T200 Evaluation software.

[5] = target: T3, Strep tagged recombinant human PD-1 (human, UniProt Q15116 25-170, limits assumed); test: SPR Biacore T200, strep-tagged PD-1 amine-coupled, single cycle kinetics
T3 construct: the whole entry is named; also called strep tagged human PD-1; not shown: Strep tag
T3 sequence (Q15116 25-170 limits assumed): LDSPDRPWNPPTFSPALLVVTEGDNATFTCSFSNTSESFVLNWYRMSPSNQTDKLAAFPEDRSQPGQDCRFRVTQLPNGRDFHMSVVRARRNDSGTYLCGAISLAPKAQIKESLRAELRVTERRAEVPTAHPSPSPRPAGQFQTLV
Protocol: Single cycle kinetics assays were used to study the interaction between human PD-1 with Humabody® on a Biacore T200 instrument (GE Healthcare). Strep tagged recombinant human PD-1 was amine coupled to one flow cell of a CM-5 chip to create a low density surface (14 RU) using standard Biacore reagents. For the reference flow cell, a blank immobilisation was carried out. A five-point, three-fold dilution series of each Humabody® was made with a top concentration of 25 nM. The binding kinetics were followed by flowing the Humabody® over the chip surface in HBS EP+ buffer at a flow rate of 30 μl/min. The contact time for each of the association steps was 180 seconds and the dissociation step was 3300 seconds. The data was fitted to a 1:1 binding model after double reference subtraction using the Biacore T200 Evaluation software.

[6] = target: human PD-1 on primary human CD4+ T cells (human, UniProt Q15116 21-288); test: flow cytometry on PHA-stimulated human CD4+ T cells (live cell gate)
Sequence of human PD-1 on primary human CD4+ T cells (Q15116 21-288): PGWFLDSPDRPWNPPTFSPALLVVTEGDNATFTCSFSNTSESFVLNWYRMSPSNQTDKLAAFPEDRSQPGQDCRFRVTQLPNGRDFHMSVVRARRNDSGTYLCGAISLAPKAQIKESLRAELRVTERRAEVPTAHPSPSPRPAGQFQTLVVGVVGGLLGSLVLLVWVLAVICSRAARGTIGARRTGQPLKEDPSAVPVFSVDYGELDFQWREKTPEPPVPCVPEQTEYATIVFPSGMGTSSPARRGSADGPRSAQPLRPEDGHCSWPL
Protocol: Binding of monovalent single domain antibodies and multivalent binding agents to T cells was measured using flow cytometry. […] T-cells were stimulated with 2.5 μg/ml PHA for 2-4 days in RPMI media supplemented with 10% FBS, 2 mM Glutamine, 1× Pen/Strep. Cells were transferred into 96 well plates (75000 per well), blocked for 10 mins with PBS/1% BSA, then incubated with serially diluted VH in staining buffer (PBS/1% BSA) for 1 hour at 4° C. Cells were washed with staining buffer by centrifugation then incubated with 10 μg/ml biotinylated Anti His antibody for 40 mins at 4° C. Cells were washed again then stained with Streptavidin Alexa Fluor-488 (10 μg/ml) and 1:5000 diluted Live Dead near IR stain (Molecular Probes cat no. L10119) for 30 mins at 4° C. After further washing cells were fixed and fluorescence measured by flow cytometry.

[7] = target: T2, recombinant human PD-1 Fc chimera; test: HTRF inhibition; biotinylated PD-L2-Fc vs Eu-cryptate PD-1-Fc
[8] = target: T2, recombinant human PD-1 Fc chimera; test: HTRF inhibition; strep-tagged PD-L1 vs PD-1-Fc
Protocol: All samples and reagents were prepared in HTRF assay buffer containing PBS, 0.1% (w/v) BSA and 0.4M Potassium Fluoride. […] Total binding controls containing periplasmic extract sample buffer and non-specific binding controls containing excess untagged competitor were set up on each plate for data normalisation. Time-resolved fluorescent emission at 620 nm and 665 nm was measured following excitation at 337 nm on the BMG PHERAstar plate reader. Data was expressed as a % of the total binding control (% control) after subtraction of the background signal determined from the non-specific binding control wells.

[9] = target: T1, human PD-1 expressed on cells (CHO …); test: FMAT inhibition; 200 pM PD-L2 on CHO human PD-1 cells
Protocol: (§1) All reagents and serially diluted VH were prepared in FMAT assay buffer. […] Plates were incubated for 2 hours at room temperature then fluorescence measured in the FL2 (502 nm-537 nm) and FL5 (677-800 nm) channels on the Mirrorball plate reader (TTP) following excitation at 488 nm and 640 nm. Data was expressed as a % of the total binding control (i.e. % control) after subtraction of the background signal determined from the non-specific binding control wells.

[10] = target: T1, human PD-1 expressed on cells (CHO …); test: cell-based or functional assay; remark: listed apart in the source
[11] = target: T1, human PD-1 expressed on cells (CHO …); test: FMAT inhibition; 100 pM PD-L1-Fc on CHO human PD-1 cells
Protocol: as §1

[12] = target: T1, human PD-1 expressed on cells (CHO …); test: FMAT 1.57 epitope competition assay on CHO human PD-1 cells; competitor: 1.57-Strep tagged protein; 1 day in mouse serum
Protocol: (§2) For the epitope competition assay reagents were prepared in FMAT assay buffer. […] Plates were incubated for a minimum of 1.5 hours at room temperature then fluorescence measured in the FL2 (502 nm-537 nm) and FL5 (677-800 nm) channels on the Mirrorball plate reader (TTP) following excitation at 488 nm and 640 nm. Data was expressed as a % of the total binding control (i.e. % control) after subtraction of the background signal determined from the non-specific binding control wells.
(§3) Serum stability of VH and multivalent VH constructs was assessed by measurement of their activity following incubation for 0, 1, 4 or 7 days in mouse serum (Sigma M5905).

[13] = target: T1, human PD-1 expressed on cells (CHO …); test: FMAT 1.57 epitope competition assay on CHO human PD-1 cells; competitor: 1.57-Strep tagged protein; 0 days in mouse serum
Protocol: as §2, §3

T1 sequence (Q15116 21-288): as above
Sequence of human PD-1 expressed on cells (CHO human PD-1 cells) (human) (Q15116 21-288): as above

B1: 1.57-1.57 (protein, part only; not given: Linker of unstated length, part only)
VH-linker-VH, part: QVQLVESGGGLVKPGGSLRLSCAASGFTFSDNSMTWMRQAPGKGLEWVSYISSGGGVIFYADSVKGRFTISRDNAKNSLYLQMNSLRADDTAVYYCAREAPLRLGESPHDAFDISGQGTMVTVSSQVQLVESGGGLVKPGGSLRLSCAASGFTFSDNSMTWMRQAPGKGLEWVSYISSGGGVIFYADSVKGRFTISRDNAKNSLYLQMNSLRADDTAVYYCAREAPLRLGESPHDAFDISGQGTMVTVSS
IC50 (read off the curve) [1]: 0.9 nM

B2: 1.57-9GS-1.57 (other)
chain: QVQLVESGGGLVKPGGSLRLSCAASGFTFSDNSMTWMRQAPGKGLEWVSYISSGGGVIFYADSVKGRFTISRDNAKNSLYLQMNSLRADDTAVYYCAREAPLRLGESPHDAFDISGQGTMVTVSSGGGGSGGGGSGGGGSGGGGSGGGGSGGGGSGGGGSGGGGSGGGGSQVQLVESGGGLVKPGGSLRLSCAASGFTFSDNSMTWMRQAPGKGLEWVSYISSGGGVIFYADSVKGRFTISRDNAKNSLYLQMNSLRADDTAVYYCAREAPLRLGESPHDAFDISGQGTMVTVSS
notes: bivalent construct of two VH domains in one chain
EC50 (M), human PD-1 reporter gene assay [2]: 1e-09 M | EC50 (M), reporter assay [3]: 1e-09 M | dissociation rate constant (koff) [4]: 8.4e-05 s⁻¹ | koff [4]: 1.14e-07 s⁻¹ | kon [4]: 1.36e+06 M⁻¹ s⁻¹ | Kd [5]: 0.0222 nM | koff [5]: 1.4e-05 s⁻¹ | kon [5]: 630000 M⁻¹ s⁻¹

B3: 1.57-6GS-1.57 (other)
chain: QVQLVESGGGLVKPGGSLRLSCAASGFTFSDNSMTWMRQAPGKGLEWVSYISSGGGVIFYADSVKGRFTISRDNAKNSLYLQMNSLRADDTAVYYCAREAPLRLGESPHDAFDISGQGTMVTVSSGGGGSGGGGSGGGGSGGGGSGGGGSGGGGSQVQLVESGGGLVKPGGSLRLSCAASGFTFSDNSMTWMRQAPGKGLEWVSYISSGGGVIFYADSVKGRFTISRDNAKNSLYLQMNSLRADDTAVYYCAREAPLRLGESPHDAFDISGQGTMVTVSS
notes: as for B2
EC50 (M), human PD-1 reporter gene assay [2]: 8.4e-10 M | EC50 (read off the curve) [6]: ~0.2 nM | EC50 (M), reporter assay [3]: 8.4e-10 M | Kd [5]: 0.0171 nM | koff [5]: 1.32e-05 s⁻¹ | kon [5]: 773000 M⁻¹ s⁻¹

B4: Humabody® 1.2 (VHH)
VHH: EVQLLESGGGLVKPGGSLRLSCAASGFTFSDYTMTWMRQAPGKGLEWVSYISTGGSIKYYTDSVKGRFTISRDNAKNSLYLQMNSLRADDTAVYYCAREAPLRLGESPHDAFDIWGQGTMVTVSS
notes: human VH single domain antibody
EC50 (read off the curve) [6]: ~2 nM | IC50 [7]: 39 nM | IC50 [8]: 13 nM

B5: Humabody® 1.64 (VHH)
VHH: EVQLVESGGGLVKPGGSLRLSCAASGFTFSDSSMTWMRQAPGKGLEWVSYISSGGGVKFYADSVKGRFTISRDNAKNSLYLQMNSLRADDTAVYYCAREAPLRLGESPHDAFDISGQGTMVTVSS
notes: as for B4
IC50 [9]: 9 nM | Reporter Assay EC50 [10]: 25 nM | IC50 [11]: 5.8 nM | IC50 (read off the curve) [12]: ~0.8 nM | IC50 (read off the curve) [13]: ~0.9 nM
